{
  "source": "patent US20100041597A1",
  "about": "“PEPTIDES TARGETED TO PROTEIN KINASE C ISOFORMS AND USES THEREOF” (priority 2005, published 2010)",
  "key": {"[1]": {"molecular_target": "PKC-ε (endogenous, human cell extracts) (human) (UniProt Q02156)", "sequence (Q02156 whole entry)": "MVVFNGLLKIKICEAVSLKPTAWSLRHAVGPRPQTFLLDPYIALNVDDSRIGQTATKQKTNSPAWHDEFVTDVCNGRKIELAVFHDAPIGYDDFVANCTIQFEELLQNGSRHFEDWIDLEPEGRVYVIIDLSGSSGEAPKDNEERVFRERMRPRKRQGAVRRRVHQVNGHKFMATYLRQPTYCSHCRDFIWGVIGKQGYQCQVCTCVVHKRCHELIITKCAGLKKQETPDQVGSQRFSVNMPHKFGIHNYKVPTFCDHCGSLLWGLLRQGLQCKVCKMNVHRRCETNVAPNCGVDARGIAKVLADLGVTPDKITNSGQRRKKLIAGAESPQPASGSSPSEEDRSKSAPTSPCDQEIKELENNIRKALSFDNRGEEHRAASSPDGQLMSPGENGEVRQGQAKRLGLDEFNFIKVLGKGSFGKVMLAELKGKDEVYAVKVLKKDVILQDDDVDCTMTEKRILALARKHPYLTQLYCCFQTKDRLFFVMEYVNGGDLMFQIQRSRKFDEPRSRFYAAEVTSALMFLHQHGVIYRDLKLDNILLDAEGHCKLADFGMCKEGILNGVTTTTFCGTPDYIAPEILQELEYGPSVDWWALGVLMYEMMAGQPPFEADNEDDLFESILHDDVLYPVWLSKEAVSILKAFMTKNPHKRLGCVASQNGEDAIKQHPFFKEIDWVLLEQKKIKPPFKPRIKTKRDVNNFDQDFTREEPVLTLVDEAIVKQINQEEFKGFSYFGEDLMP", "assay": "Western blot Protocol B, IMR-32 extract, Band 2, no peptide"}, "[2]": {"molecular_target": "PKC-ε (endogenous, human cell extracts) (human) (UniProt Q02156)", "assay": "Western blot Protocol B, IMR-32 extract, Band 1, no peptide"}, "[3]": {"molecular_target": "PKC-βI (endogenous, human cell extracts) (human) (UniProt P05771)", "sequence (P05771 2-671)": "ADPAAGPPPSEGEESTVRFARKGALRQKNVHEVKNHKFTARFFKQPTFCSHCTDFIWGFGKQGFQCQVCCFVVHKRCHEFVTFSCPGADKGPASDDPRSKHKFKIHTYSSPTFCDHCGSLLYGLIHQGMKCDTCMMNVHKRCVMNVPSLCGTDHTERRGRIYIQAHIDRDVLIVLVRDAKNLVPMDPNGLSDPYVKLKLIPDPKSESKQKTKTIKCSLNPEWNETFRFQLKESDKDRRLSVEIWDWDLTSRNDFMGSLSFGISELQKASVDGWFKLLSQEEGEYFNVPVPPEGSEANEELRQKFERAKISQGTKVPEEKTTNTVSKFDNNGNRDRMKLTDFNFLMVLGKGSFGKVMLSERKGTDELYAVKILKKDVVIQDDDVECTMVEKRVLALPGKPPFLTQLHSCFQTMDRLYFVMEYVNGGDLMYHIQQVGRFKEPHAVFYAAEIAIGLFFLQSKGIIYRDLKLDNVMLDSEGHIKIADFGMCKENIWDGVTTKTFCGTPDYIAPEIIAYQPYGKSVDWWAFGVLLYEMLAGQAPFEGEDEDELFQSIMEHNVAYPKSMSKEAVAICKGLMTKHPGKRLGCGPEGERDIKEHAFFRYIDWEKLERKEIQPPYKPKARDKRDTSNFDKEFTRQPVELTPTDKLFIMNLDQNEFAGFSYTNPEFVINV", "assay": "Western blot Protocol B, IMR-32 extract, no peptide"}, "[4]": {"molecular_target": "PKC-βII (endogenous, human cell extracts) (human) (UniProt P05771)", "sequence (P05771 other isoform, or with tags, fused parts or gaps limits assumed)": "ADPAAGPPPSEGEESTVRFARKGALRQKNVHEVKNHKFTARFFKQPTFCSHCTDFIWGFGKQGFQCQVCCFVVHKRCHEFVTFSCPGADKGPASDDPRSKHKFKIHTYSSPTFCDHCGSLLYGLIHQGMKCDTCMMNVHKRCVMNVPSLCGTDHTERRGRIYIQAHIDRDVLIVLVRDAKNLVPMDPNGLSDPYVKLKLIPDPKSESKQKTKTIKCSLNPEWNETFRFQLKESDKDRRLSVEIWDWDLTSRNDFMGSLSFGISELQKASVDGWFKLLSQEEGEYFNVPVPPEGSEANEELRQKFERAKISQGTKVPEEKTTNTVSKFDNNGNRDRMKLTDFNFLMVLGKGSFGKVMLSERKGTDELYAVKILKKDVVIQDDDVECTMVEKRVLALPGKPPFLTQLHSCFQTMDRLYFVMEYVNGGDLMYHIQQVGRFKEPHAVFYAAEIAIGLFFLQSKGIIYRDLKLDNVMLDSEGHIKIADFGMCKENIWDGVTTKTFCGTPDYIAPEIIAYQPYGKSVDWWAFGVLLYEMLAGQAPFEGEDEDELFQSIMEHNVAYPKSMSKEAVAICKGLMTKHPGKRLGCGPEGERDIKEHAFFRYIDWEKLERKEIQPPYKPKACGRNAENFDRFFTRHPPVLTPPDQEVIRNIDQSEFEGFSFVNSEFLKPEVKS", "assay": "Western blot Protocol B, IMR-32 extract, no peptide"}},
  "note": "“And” between values parts separate entries of the source, which are not always exact repeats. Identical values can stand only once.",
  "data": [
    {"substance": "anti-PKC ε antibody (Cat. No. SC-214, Santa Cruz Biotechnology, Inc.)", "values": [
      {"measurement": "band intensity", "setting": "[1]", "value": "261 and 281 and 286"},
      {"measurement": "band intensity", "setting": "[2]", "value": "421 and 420 and 323"}
    ]},
    {"substance": "anti-PKC βI antibody (Cat. No. SC-209, Santa Cruz Biotechnology, Inc.)", "values": [
      {"measurement": "band intensity", "setting": "[3]", "value": 170}
    ]},
    {"substance": "anti-PKC βII antibody (Cat. No. SC-210, Santa Cruz Biotechnology, Inc.)", "values": [
      {"measurement": "band intensity", "setting": "[4]", "value": 98.6}
    ]}
  ]
}
